Measurements as given in US20170051047A1.
Read-outs that look alike come from different tables or passages of the source.

Legend:
[1] = molecular target: T1, Clostridium difficile toxin A (whole toxin A) (Clostridium difficile), P16154; conditions: remark: other sources report otherwise
[2] = molecular target: T1, Clostridium difficile toxin A (whole …); conditions: remark: other sources report otherwise; remark: listed apart in the source

B1: CAN20G2 (antibody, V domains shown)
VH: QIQLVQSGPEVKKPGETVKISCKASGYTFTNQGMNWVKQAPGKGLKWMGWINTNTGEPTYTEEFKGRFAFSLETSASTAYLQINNLKNEDTATYFCYVNYDYYTMDFWGQGTSVTVSS
VL: QVVLTQSPAIMSASLGDRVTMTCTASSSVISTYLHWYQQKPGSSPKLWIYSTSTLASGVPPRFSGSGSGTSYSLTISSMEAEDAATYYCLQYHRSPRTFGGGTKLEIK
[1]
  Kd: 4.19 pM
  koff: 4.35e-07 s⁻¹
  kon: 104000 M⁻¹ s⁻¹
[2]
  Kd: 166 pM
  koff: 1.8e-05 s⁻¹
  kon: 108000 M⁻¹ s⁻¹
